Experimental data reported in publication PMC11306496.

How the values were obtained:
Test in all cases: co-IP; total rat hippocampal lysates with primary antibody and Protein A/G agarose, 4°C; buffer pH 7.4, 0.05 mol/L HEPES, 0.15 mol/L NaCl, 0.5% NP-40, 1% Triton X-100; non-immune IgG as control; slices untreated or treated with PMA (0.5 umol/L, 10 min) and/or AIP (1 umol/L)
[1] = target: small GTPase Rab11 (rat (endogenous in hippocampus)) (UniProt P62494)
[2] = target: Rab11 family-interacting protein 3 (rat (endogenous in hippocampus))
[3] = target: NMDA receptor subunit GluN1 (rat (endogenous in hippocampus)) (UniProt P35439)
[4] = target: myosin Va (rat (endogenous in hippocampus)) (UniProt Q9QYF3)
Chain of myosin Va (rat (endogenous in hippocampus)) (Q9QYF3 whole entry): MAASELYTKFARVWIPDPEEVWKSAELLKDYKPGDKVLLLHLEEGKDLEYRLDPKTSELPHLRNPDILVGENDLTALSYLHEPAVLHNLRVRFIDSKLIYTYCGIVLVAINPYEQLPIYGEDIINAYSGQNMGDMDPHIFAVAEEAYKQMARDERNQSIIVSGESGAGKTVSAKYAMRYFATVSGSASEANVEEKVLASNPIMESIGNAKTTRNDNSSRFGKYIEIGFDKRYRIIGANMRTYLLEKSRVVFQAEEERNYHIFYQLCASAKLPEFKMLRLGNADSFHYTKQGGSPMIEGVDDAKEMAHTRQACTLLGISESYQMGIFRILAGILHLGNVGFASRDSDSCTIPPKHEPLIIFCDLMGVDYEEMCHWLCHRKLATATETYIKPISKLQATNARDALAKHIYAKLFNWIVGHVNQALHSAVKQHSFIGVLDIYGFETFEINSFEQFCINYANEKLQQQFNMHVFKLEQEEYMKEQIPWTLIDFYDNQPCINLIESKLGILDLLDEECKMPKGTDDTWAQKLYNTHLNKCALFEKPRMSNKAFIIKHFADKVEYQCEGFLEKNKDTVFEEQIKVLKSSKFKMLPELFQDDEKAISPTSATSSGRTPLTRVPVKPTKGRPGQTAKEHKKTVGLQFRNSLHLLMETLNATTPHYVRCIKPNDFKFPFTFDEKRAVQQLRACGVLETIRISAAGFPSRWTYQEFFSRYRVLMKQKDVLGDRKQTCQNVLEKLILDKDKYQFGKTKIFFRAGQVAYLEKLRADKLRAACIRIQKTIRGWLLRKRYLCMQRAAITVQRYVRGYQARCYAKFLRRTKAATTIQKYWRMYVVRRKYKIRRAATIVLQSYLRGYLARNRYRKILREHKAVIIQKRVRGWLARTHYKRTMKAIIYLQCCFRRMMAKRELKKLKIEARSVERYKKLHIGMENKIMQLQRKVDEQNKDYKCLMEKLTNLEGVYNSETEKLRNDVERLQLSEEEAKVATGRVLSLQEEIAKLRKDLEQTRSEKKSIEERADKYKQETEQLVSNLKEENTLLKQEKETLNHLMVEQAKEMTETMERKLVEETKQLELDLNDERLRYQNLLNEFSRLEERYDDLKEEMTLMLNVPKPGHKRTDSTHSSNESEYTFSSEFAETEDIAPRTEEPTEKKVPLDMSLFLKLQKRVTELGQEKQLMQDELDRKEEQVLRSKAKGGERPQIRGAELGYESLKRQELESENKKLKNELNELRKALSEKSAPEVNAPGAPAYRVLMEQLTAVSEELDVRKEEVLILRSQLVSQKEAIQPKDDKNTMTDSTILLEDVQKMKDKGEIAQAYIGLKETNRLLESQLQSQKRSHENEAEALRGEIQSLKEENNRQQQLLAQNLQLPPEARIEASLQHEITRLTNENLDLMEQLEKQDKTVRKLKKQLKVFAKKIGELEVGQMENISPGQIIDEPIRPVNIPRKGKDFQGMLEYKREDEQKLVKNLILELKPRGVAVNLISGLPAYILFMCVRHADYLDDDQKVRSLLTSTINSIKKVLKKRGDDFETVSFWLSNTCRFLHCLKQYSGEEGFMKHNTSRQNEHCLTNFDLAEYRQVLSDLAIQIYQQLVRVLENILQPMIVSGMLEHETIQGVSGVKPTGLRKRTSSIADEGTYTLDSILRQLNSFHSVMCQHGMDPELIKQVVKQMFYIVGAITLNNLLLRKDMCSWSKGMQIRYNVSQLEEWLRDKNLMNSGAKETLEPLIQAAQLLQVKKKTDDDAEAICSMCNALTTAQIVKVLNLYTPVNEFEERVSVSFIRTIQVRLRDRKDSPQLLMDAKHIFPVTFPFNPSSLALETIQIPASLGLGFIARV

Chain of small GTPase Rab11 (rat (endogenous in hippocampus)) (P62494 whole entry): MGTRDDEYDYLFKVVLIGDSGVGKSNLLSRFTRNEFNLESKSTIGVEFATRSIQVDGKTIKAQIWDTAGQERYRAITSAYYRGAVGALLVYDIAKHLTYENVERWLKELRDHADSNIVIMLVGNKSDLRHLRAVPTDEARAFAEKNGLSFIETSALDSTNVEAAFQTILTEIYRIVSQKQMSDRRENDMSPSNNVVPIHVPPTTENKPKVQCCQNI
Chain of small GTPase Rab11 (P62494 whole entry): as above
Chain of NMDA receptor subunit GluN2A (Q00959 23-1464): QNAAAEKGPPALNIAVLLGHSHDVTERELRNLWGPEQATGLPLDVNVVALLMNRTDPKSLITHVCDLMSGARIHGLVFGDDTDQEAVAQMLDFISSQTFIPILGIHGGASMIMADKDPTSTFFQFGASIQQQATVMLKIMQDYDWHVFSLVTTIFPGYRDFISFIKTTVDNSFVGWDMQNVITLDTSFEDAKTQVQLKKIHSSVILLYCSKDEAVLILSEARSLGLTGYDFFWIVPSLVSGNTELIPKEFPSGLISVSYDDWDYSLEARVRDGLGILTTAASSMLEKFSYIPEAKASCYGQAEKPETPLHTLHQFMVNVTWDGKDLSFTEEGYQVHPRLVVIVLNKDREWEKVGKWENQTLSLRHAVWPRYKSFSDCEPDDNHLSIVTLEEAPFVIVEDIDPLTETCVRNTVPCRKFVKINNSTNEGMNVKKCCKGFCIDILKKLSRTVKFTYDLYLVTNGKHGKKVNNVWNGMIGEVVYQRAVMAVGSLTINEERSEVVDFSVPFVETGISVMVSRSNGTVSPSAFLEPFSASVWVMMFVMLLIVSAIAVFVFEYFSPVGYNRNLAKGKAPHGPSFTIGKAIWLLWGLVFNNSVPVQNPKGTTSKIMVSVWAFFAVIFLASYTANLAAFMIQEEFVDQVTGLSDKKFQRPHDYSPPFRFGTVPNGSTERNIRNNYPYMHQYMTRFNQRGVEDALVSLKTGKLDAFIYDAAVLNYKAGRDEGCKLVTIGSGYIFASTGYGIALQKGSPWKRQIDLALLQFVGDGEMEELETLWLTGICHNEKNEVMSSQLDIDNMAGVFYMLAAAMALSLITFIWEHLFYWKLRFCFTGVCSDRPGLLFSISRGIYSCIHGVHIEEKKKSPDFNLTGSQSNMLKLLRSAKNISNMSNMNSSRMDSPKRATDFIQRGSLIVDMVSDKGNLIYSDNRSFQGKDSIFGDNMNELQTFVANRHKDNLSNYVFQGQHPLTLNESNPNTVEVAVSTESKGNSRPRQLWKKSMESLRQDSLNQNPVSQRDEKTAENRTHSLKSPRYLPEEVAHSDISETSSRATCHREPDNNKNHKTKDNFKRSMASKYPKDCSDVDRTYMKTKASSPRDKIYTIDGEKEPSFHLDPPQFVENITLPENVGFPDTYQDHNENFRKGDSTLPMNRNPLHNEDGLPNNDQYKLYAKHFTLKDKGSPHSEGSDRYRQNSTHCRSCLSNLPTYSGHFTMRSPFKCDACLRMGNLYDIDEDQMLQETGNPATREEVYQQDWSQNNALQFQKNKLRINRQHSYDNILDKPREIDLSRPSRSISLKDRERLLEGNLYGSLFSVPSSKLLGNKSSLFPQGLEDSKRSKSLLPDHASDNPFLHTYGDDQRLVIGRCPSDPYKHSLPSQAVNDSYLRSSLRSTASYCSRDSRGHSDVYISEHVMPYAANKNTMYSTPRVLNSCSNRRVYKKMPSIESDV

co-IP signal with PMA, normalised to control (IP with anti-Rab11) (fold of control) [1]	co-IP signal with PMA, normalised to control (IP with anti-FIP3) (fold of control) [2]	co-IP signal with PMA, normalised to control (IP with anti-GluN1) (fold of control) [3]	co-IP signal with PMA, normalised to control (IP with anti-MyoVa) (fold of control) [4]	Substance
1.5	1.44			NMDA receptor subunit GluN1 (from UniProt P35439 19-938)
1.39	1.45			NMDA receptor subunit GluN2A (from UniProt Q00959 23-1464)
		1.37		Rab11 family-interacting protein 3 (natural protein)
1.33	1.33			myosin Va (from UniProt Q9QYF3 1-1828) (natural protein)
	1.38	1.53	1.31	small GTPase Rab11 (from UniProt P62494 1-216) (natural protein)
